In publication PMC9279424:
Several values for one entry are separate records, joined by “and”; a condition that tells them apart may be missing. Equal values may be shown once. Blank lines part the entries; values can stand above or below the substance they belong to.

Legend:
[1] = molecular target: Cyani HAP2 ectodomain (residues 28–564) fusion loop mutant FL3 (W147A, L148A) (Cyanidioschyzon merolae); test: SEC; WT and mutant ectodomains (16 μM) with nine volumes of citrate buffer pH 3.5, 500 mM NaCl, 0.1% DDM, 37 °C; running buffer pH 3.5 with 0.01% DDM
[2] = molecular target: Cyani HAP2 ectodomain (residues 28–564) fusion loop mutant FL3 (W147A, L148A) (Cyanidioschyzon merolae); test: SEC; WT and mutant ectodomains (16 μM) with nine volumes of citrate buffer pH 4.3, 500 mM NaCl, 0.1% DDM, 2 or 4 h at 37 °C; running buffer pH 4.3 with 0.01% DDM
[3] = molecular target: Chlamy HAP2 (Chlamydomonas reinhardtii HAP2), purified monomer (Chlamydomonas reinhardtii); test: negative-stain EM; Chlamy HAP2 at pH 7.5 with 0.1% β-DDM, 2 h, 23 °C, gel filtered; 2D class averages
[4] = molecular target: Chlamy HAP2 (Chlamydomonas reinhardtii HAP2), purified monomer (Chlamydomonas reinhardtii); test: negative-stain EM; Chlamy HAP2 at pH 7.5 with 0.1% β-DDM, 26 h, 23 °C, gel filtered; 2D class averages
[5] = molecular target: Cyani HAP2 ectodomain (residues 28–564) fusion loop mutant FL2 (L210A, L211A, F213A) (Cyanidioschyzon merolae); test: SEC; WT and mutant ectodomains (16 μM) with nine volumes of citrate buffer pH 3.5, 500 mM NaCl, 0.1% DDM, 37 °C; running buffer pH 3.5 with 0.01% DDM
[6] = molecular target: Cyani HAP2 ectodomain (residues 28–564) fusion loop mutant FL2 (L210A, L211A, F213A) (Cyanidioschyzon merolae); test: SEC; WT and mutant ectodomains (16 μM) with nine volumes of citrate buffer pH 4.3, 500 mM NaCl, 0.1% DDM, 2 or 4 h at 37 °C; running buffer pH 4.3 with 0.01% DDM
[7] = molecular target: Cyani HAP2 ectodomain (residues 28–564), wild type, from Expi293F cells (Cyanidioschyzon merolae); test: SEC; WT and mutant ectodomains (16 μM) with nine volumes of citrate buffer pH 3.5, 500 mM NaCl, 0.1% DDM, 37 °C; running buffer pH 3.5 with 0.01% DDM
[8] = molecular target: Cyani HAP2 ectodomain (residues 28–564), wild type, from Expi293F cells (Cyanidioschyzon merolae); test: SEC; WT and mutant ectodomains (16 μM) with nine volumes of citrate buffer pH 4.3, 500 mM NaCl, 0.1% DDM, 2 or 4 h at 37 °C; running buffer pH 4.3 with 0.01% DDM
[9] = molecular target: Cyani HAP2 ectodomain (residues 28–564), wild type, from Expi293F cells (Cyanidioschyzon merolae); test: SEC; WT and mutant ectodomains (16 μM) with nine volumes of citrate buffer pH 4.7, 500 mM NaCl, 0.1% DDM; gel filtered immediately or after 2 h at 37 °C in pH 4.7 buffer with 0.01% DDM
[10] = molecular target: Cyani HAP2 D1D2 (residues 28–457) (Cyanidioschyzon merolae); test: negative-stain EM; Cyani HAP2 D1D2 at pH 1.5 in 0.1% β-DDM, 26 h, 37 °C; 2D class averages
[11] = molecular target: Cyani HAP2 D1D2 (residues 28–457) (Cyanidioschyzon merolae); test: negative-stain EM; Cyani HAP2 D1D2 at pH 5.0 in 0.1% β-DDM, 26 h, 37 °C; 2D class averages
[12] = molecular target: Cyani HAP2 ectodomain (aa 28–564), from Drosophila S2 cells (Cyanidioschyzon merolae); test: negative-stain EM; Cyani HAP2 incubated with β-DDM at pH 5.0, 37 °C, 2 h, gel filtered; 2D class averages
[13] = molecular target: Cyani HAP2 ectodomain (aa 28–564), from Drosophila S2 cells (Cyanidioschyzon merolae); test: negative-stain EM; Cyani HAP2 incubated with β-DDM at pH 5.0, 37 °C, 26 h, gel filtered; 2D class averages
[14] = molecular target: Cyani HAP2 ectodomain (aa 28–564), from Drosophila S2 cells (Cyanidioschyzon merolae); test: negative-stain EM; gel filtration peak of Cyani HAP2 treated with β-DDM at pH 2.0, 37 °C; 2D class averages
[15] = molecular target: Cyani HAP2 ectodomain (aa 28–564), from Drosophila S2 cells (Cyanidioschyzon merolae); test: SEC-MALS; Superdex 200 10/300 GL; Cyani HAP2 trimer formed at pH 1.5 with β-DDM; protein conjugate model (glycoprotein and β-DDM components)
[16] = molecular target: Cyani HAP2 ectodomain (aa 28–564), from Drosophila S2 cells (Cyanidioschyzon merolae); test: SEC; incubated with 0.1% β-DDM, 500 mM NaCl at pH 1.5, 2.0, 3.5, 4.3 or 5.0, 37 °C, 26 h; Superdex 200 in buffer of the same pH, 0.01% β-DDM; monomer to trimer

- stoichiometry N [1]: 3
- stoichiometry N [2]: 3
Substance: Cyani HAP2 ectodomain (residues 28–564) fusion loop mutant FL3 (W147A, L148A) (domain or fragment)

- stoichiometry N [3]: 2 and 3
- stoichiometry N [4]: 3 and 6
Substance: Chlamy HAP2 (Chlamydomonas reinhardtii HAP2), purified monomer (domain or fragment)

- stoichiometry N [5]: 3
- stoichiometry N [6]: 3
Substance: Cyani HAP2 ectodomain (residues 28–564) fusion loop mutant FL2 (L210A, L211A, F213A) (domain or fragment)

- stoichiometry N [7]: 3
- stoichiometry N [8]: 3
- stoichiometry N [9]: 3
Substance: Cyani HAP2 ectodomain (residues 28–564), wild type, from Expi293F cells (domain or fragment)

- stoichiometry N [10]: 3
- stoichiometry N [11]: 3 and 2
Substance: Cyani HAP2 D1D2 (residues 28–457) (domain or fragment)

- stoichiometry N [12]: 2 and 3
- stoichiometry N [13]: 3 and 6
- stoichiometry N [14]: 3 and 6
- stoichiometry N [15]: 3
- stoichiometry N [16]: 3
Substance: Cyani HAP2 ectodomain (aa 28–564), from Drosophila S2 cells (domain or fragment)
